Measurements from patent US20120172295A1 (INDIANA UNIVERSITY RESEARCH AND TECHNOLOGY, published 2012).
Read-outs that look alike come from different tables or passages of the source. Starred links: 1 amine or outer side, 2 acyl side, 3 side chain; linkers in the order of their positions; H or OH if unused. Positions of bridges follow the written chain, without caps; N, C: chain ends. Non-standard residues stand in square brackets, D forms with d. Groups on a side chain read outwards from the residue. Primed or numbered codes have the meaning given here. No end group written: not given here. *: point of attachment. PEG 40 kDa″ = 40 kDa polyethylene glycol; γGlu = O=C(O)[C@H](CCC(=O)[*:2])N[*:1]; Stearoyl = CCCCCCCCCCCCCCCCCC(=O)*; Palmitoyl = CCCCCCCCCCCCCCCC(=O)*; Myristoyl = CCCCCCCCCCCCCC(=O)*; Nle = CCCC[C@H](N)C(=O)O; Orn = NCCC[C@H](N)C(=O)O; Aib = CC(C)(N)C(=O)O

Legend:
Experiment in all cases: cell-based or functional assay
[1] = target: T1, GLP-1 receptor (UniProt P43220 24-463, limits assumed)
[2] = target: T2, GIP receptor (UniProt P48546 22-466)
T2 sequence (looked up): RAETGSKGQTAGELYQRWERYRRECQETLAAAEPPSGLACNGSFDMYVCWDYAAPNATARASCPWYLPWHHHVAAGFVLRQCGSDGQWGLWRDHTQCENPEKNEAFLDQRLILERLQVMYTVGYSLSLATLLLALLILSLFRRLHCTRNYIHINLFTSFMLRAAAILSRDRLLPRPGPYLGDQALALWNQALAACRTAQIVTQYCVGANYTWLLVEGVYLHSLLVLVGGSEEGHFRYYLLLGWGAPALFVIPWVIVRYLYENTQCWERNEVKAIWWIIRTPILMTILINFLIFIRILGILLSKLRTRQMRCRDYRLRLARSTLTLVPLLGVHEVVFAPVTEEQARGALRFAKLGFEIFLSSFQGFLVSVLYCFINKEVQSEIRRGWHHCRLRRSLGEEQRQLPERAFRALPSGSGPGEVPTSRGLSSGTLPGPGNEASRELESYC

[3] = target: T1, GLP-1 receptor; remark: listed apart in the source
[4] = target: T3, glucagon receptor (UniProt P47871 26-477, limits assumed)
[5] = target: T2, GIP receptor; remark: listed apart in the source
[6] = target: T1, GLP-1 receptor; remark: listed apart in the source
[7] = target: T3, glucagon receptor; remark: listed apart in the source
[8] = target: T1, GLP-1 receptor; remark: listed apart in the source
[9] = target: T3, glucagon receptor; remark: listed apart in the source
[10] = target: T1, GLP-1 receptor; remark: listed apart in the source
[11] = target: T3, glucagon receptor; remark: listed apart in the source
[12] = target: T3, glucagon receptor; remark: listed apart in the source
[13] = target: T3, glucagon receptor; remark: listed apart in the source
[14] = target: T3, glucagon receptor; remark: listed apart in the source
[15] = target: T2, GIP receptor; remark: listed apart in the source
[16] = target: T1, GLP-1 receptor; remark: listed apart in the source
[17] = target: T3, glucagon receptor; remark: listed apart in the source
[18] = target: T3, glucagon receptor; remark: listed apart in the source
[19] = target: T3, glucagon receptor; remark: listed apart in the source
[20] = target: T1, GLP-1 receptor; remark: listed apart in the source
[21] = target: T1, GLP-1 receptor; remark: listed apart in the source
[22] = target: T3, glucagon receptor; remark: listed apart in the source

T3 sequence (P47871 26-477 limits assumed): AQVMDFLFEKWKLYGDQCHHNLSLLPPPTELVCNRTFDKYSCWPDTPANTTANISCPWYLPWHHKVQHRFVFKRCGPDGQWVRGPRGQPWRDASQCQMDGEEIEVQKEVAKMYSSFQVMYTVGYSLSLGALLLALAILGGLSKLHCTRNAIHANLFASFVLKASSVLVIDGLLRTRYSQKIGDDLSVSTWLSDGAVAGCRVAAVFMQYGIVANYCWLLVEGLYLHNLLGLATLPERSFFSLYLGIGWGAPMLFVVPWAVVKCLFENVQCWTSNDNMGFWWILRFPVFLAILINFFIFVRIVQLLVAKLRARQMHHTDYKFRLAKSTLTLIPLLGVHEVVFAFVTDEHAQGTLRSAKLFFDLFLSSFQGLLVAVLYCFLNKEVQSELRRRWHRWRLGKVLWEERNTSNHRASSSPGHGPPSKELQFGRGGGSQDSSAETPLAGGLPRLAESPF

Binder: HS[Orn]GTFTSDYSKYLDERRAQDFVQWLMNT-NH2 [Orn3, E16 Gluc-NH2]
- Percent Potency Relative to Native Ligand [1]: 0.1%

Binder: HXQGTFTSDYSKYLDEQAAKEFICWLMNGGPSSGAPPPSK (AIB at 2; Lys 40 acylated with a C14 fatty acyl group) [mt-345]
- % Relative activity [2]: 4.99%
- % Relative activity [3]: 153%
- % Relative activity [4]: 193%
- EC50 [4]: 0.0183 nM
- % Relative activity [5]: 5%
- % Relative activity [6]: 153%
- % Relative activity [7]: 193%

Binder: H[Aib]QGTFTSDYSKYLDEQAAKEFICWLMNT [Peptide X]
- % activity of native GLP-1 [8]: 202%
- % activity of native glucagon [9]: 9.38%

B1: mt-348 (peptide)
peptide: H[Aib]QGTFTSDYSKYLD[Aib]QAAKEFICWLMNGGPSSGAPPPSK-NH2
modifications: N-terminus assumed
SMILES: CC[C@H](C)[C@H](NC(=O)[C@H](Cc1ccccc1)NC(=O)[C@H](CCC(=O)O)NC(=O)[C@H](CCCCN)NC(=O)[C@H](C)NC(=O)[C@H](C)NC(=O)[C@H](CCC(N)=O)NC(=O)C(C)(C)NC(=O)[C@H](CC(=O)O)NC(=O)[C@H](CC(C)C)NC(=O)[C@H](Cc1ccc(O)cc1)NC(=O)[C@H](CCCCN)NC(=O)[C@H](CO)NC(=O)[C@H](Cc1ccc(O)cc1)NC(=O)[C@H](CC(=O)O)NC(=O)[C@H](CO)NC(=O)[C@@H](NC(=O)[C@H](Cc1ccccc1)NC(=O)[C@@H](NC(=O)CNC(=O)[C@H](CCC(N)=O)NC(=O)C(C)(C)NC(=O)[C@@H](N)Cc1c[nH]cn1)[C@@H](C)O)[C@@H](C)O)C(=O)N[C@@H](CS)C(=O)N[C@@H](Cc1c[nH]c2ccccc12)C(=O)N[C@@H](CC(C)C)C(=O)N[C@@H](CCSC)C(=O)N[C@@H](CC(N)=O)C(=O)NCC(=O)NCC(=O)N1CCC[C@H]1C(=O)N[C@@H](CO)C(=O)N[C@@H](CO)C(=O)NCC(=O)N[C@@H](C)C(=O)N1CCC[C@H]1C(=O)N1CCC[C@H]1C(=O)N1CCC[C@H]1C(=O)N[C@@H](CO)C(=O)N[C@@H](CCCCN)C(N)=O
- % Relative activity [2]: 0.15%
- EC50 [2]: 1.76 nM
- % Relative activity [3]: 149%
- EC50 [3]: 0.0037 nM
- % Relative activity [4]: 8.16%
- EC50 [4]: 0.433 nM
- % Relative activity [5]: 0.2%
- % Relative activity [6]: 149%
- % Relative activity [7]: 8.2%

Binder: H[Aib]QGTFTSDYSKYLDEQAAKEFIC([maleimide-PEG 40 kDa″])WLMNT (lactam 16-20) [Peptide Y-PEG]
- % activity of native GLP-1 [8]: 47.6%
- EC50 (cAMP, CRE-luciferase) [8]: 0.059 nM
- % activity of native glucagon [9]: 8.22%
- EC50 (cAMP, CRE-luciferase) [9]: 0.667 nM

Binder: HXQGTFTSDKSKYLDERRAKDFVQWLMNT (d-Ser at 2; Lys 10 acylated with C16; C-terminal amide) [Peptide dS2K10(C16)E16K20-Gluc Amide]
- EC50 [10]: 0.041 nM
- EC50 [11]: 0.076 nM

Binder: H[Aib]QGTFTSDK([Trp-Palmitoyl])SKYLD[Aib]RRAQDFVC(PEG 40 kDa)WLMNT-NH2 [Glucagon (1-29a) Aib2 Lys10-Trp-C16 Aib16 Cys24-40 kD]
- EC50 [12]: 0.29 nM

Binder: HSQGTFTSDK([Trp-Stearoyl])SKYLDERRAKDFVQWLMNT-NH2 [E16 K20-glucagon-NH2 with K10-W-C18]
- EC50 [13]: 0.05 nM
- EC50 [14]: 0.044 nM

B2: Peptide 900 (peptide)
peptide: H[Aib]QGTFTSDYSKYLD[Aib]RRAQDFVQWLMNTGPSSGAPPPSK([γGlu-γGlu-Palmitoyl])-NH2
modifications: N-terminus assumed
SMILES: CCCCCCCCCCCCCCCC(=O)N[C@@H](CCC(=O)N[C@@H](CCC(=O)NCCCC[C@H](NC(=O)[C@H](CO)NC(=O)[C@@H]1CCCN1C(=O)[C@@H]1CCCN1C(=O)[C@@H]1CCCN1C(=O)[C@H](C)NC(=O)CNC(=O)[C@H](CO)NC(=O)[C@H](CO)NC(=O)[C@@H]1CCCN1C(=O)CNC(=O)[C@@H](NC(=O)[C@H](CC(N)=O)NC(=O)[C@H](CCSC)NC(=O)[C@H](CC(C)C)NC(=O)[C@H](Cc1c[nH]c2ccccc12)NC(=O)[C@H](CCC(N)=O)NC(=O)[C@@H](NC(=O)[C@H](Cc1ccccc1)NC(=O)[C@H](CC(=O)O)NC(=O)[C@H](CCC(N)=O)NC(=O)[C@H](C)NC(=O)[C@H](CCCNC(=N)N)NC(=O)[C@H](CCCNC(=N)N)NC(=O)C(C)(C)NC(=O)[C@H](CC(=O)O)NC(=O)[C@H](CC(C)C)NC(=O)[C@H](Cc1ccc(O)cc1)NC(=O)[C@H](CCCCN)NC(=O)[C@H](CO)NC(=O)[C@H](Cc1ccc(O)cc1)NC(=O)[C@H](CC(=O)O)NC(=O)[C@H](CO)NC(=O)[C@@H](NC(=O)[C@H](Cc1ccccc1)NC(=O)[C@@H](NC(=O)CNC(=O)[C@H](CCC(N)=O)NC(=O)C(C)(C)NC(=O)[C@@H](N)Cc1c[nH]cn1)[C@@H](C)O)[C@@H](C)O)C(C)C)[C@@H](C)O)C(N)=O)C(=O)O)C(=O)O
- % Relative activity [15]: 2.89%
- % Relative activity [16]: 383%
- % Relative activity [17]: 560%

Binder: H[Aib]QGTFTSDK(Palmitoyl)SKYLD[Aib]RRAQDFVQWLMNT-NH2 [Peptide 50 (SEQ ID NO: 563)]
- EC50 [18]: 0.052 nM
- EC50 (20% human plasma) [18]: 0.023 nM
- EC50 [19]: 0.572 nM

Binder: HSQGTFTSDK(Palmitoyl)SKYLDERRAKDFVQWLMNT-NH2 [E16 K20-glucagon-NH2 with K10-C16]
- EC50 [20]: 0.09 nM
- EC50 [13]: 0.4 nM
- EC50 [21]: 0.125 nM
- EC50 [14]: 0.236 nM

Binder: HXQGTFTSDYSKYLDERRAKDFVQWLMNTK (d-Ser at 2; Lys 30 acylated with C16; C-terminal amide) [Peptide dS2E16K20K30-C16 Gluc Amide]
- EC50 [10]: 3.05 nM
- EC50 [11]: 4.89 nM

Binder: HS[Nle]GTFTSDYSKYLDERRAQDFVQWLMNT-NH2 [NLeu3, E16 Gluc-NH2]
- Percent Potency Relative to Native Ligand [1]: 20.6%

Binder: Y[Aib]EGTFTSDYSIYLDKQAA[Aib]EFVNWLLAGGPSSGAPPPSK(Palmitoyl) [mt-261]
- % Relative activity [22]: 31.6%
- % Relative activity [7]: 13.4%

B3: mt-347 (peptide)
peptide: H[Aib]QGTFTSDYSKYLD[Aib]QAAKEFICWLMNGGPSSGAPPPSK(Myristoyl)-NH2
modifications: N-terminus assumed
SMILES: CCCCCCCCCCCCCC(=O)NCCCC[C@H](NC(=O)[C@H](CO)NC(=O)[C@@H]1CCCN1C(=O)[C@@H]1CCCN1C(=O)[C@@H]1CCCN1C(=O)[C@H](C)NC(=O)CNC(=O)[C@H](CO)NC(=O)[C@H](CO)NC(=O)[C@@H]1CCCN1C(=O)CNC(=O)CNC(=O)[C@H](CC(N)=O)NC(=O)[C@H](CCSC)NC(=O)[C@H](CC(C)C)NC(=O)[C@H](Cc1c[nH]c2ccccc12)NC(=O)[C@H](CS)NC(=O)[C@@H](NC(=O)[C@H](Cc1ccccc1)NC(=O)[C@H](CCC(=O)O)NC(=O)[C@H](CCCCN)NC(=O)[C@H](C)NC(=O)[C@H](C)NC(=O)[C@H](CCC(N)=O)NC(=O)C(C)(C)NC(=O)[C@H](CC(=O)O)NC(=O)[C@H](CC(C)C)NC(=O)[C@H](Cc1ccc(O)cc1)NC(=O)[C@H](CCCCN)NC(=O)[C@H](CO)NC(=O)[C@H](Cc1ccc(O)cc1)NC(=O)[C@H](CC(=O)O)NC(=O)[C@H](CO)NC(=O)[C@@H](NC(=O)[C@H](Cc1ccccc1)NC(=O)[C@@H](NC(=O)CNC(=O)[C@H](CCC(N)=O)NC(=O)C(C)(C)NC(=O)[C@@H](N)Cc1c[nH]cn1)[C@@H](C)O)[C@@H](C)O)[C@@H](C)CC)C(N)=O
- % Relative activity [2]: 0.7%
- EC50 [2]: 0.383 nM
- % Relative activity [3]: 67.1%
- EC50 [3]: 0.0082 nM
- % Relative activity [4]: 111%
- EC50 [4]: 0.0317 nM
- % Relative activity [5]: 0.7%
- % Relative activity [6]: 67%
- % Relative activity [7]: 111%
